Laboratory results taken from the supplement of paper PMC11246515.
± gives the standard deviation of the averaged measurements.

Assay: total protein half-life in vivo (active degradation + dilution); higher = more stable protein
[1] = E. coli NCM3722 delta-clpP delta-lon delta-hslV, growth: N-lim chemostat, doubling time 6 h
[2] = E. coli NCM3722 delta-smpB, growth: N-lim chemostat, doubling time 6 h
[3] = wild type E. coli NCM3722, growth: C-lim chemostat, doubling time 6 h
[4] = wild type E. coli NCM3722, growth: N-lim chemostat, doubling time 6 h
[5] = wild type E. coli NCM3722, growth: N-lim chemostat, doubling time 12 h
[6] = wild type E. coli NCM3722, growth: P-lim chemostat, doubling time 6 h
[7] = wild type E. coli NCM3722, growth: P-lim chemostat, doubling time 12 h
[8] = E. coli NCM3722 delta-clpP, growth: N-lim chemostat, doubling time 6 h
[9] = E. coli NCM3722 delta-lon, growth: N-lim chemostat, doubling time 6 h
[10] = wild type E. coli NCM3722, growth: C-lim chemostat, doubling time 3 h
[11] = wild type E. coli NCM3722, growth: C-lim chemostat, doubling time 12 h
[12] = E. coli NCM3722 delta-hslV, growth: N-lim chemostat, doubling time 6 h

## MKRNLLSSAIIVAIMSLGLTGCDDKKAETETLPPANSQPAAPAPEAKPTEAPVAKAEAKPETPAQPVVDEQAVFDEKMDVYIKCYNKLQIPVQRSLARYADWLKDFKQGPTGEERTVYGIYGISESNLAECEKGVKSAVALTPALQPIDGVAVSYIDAAVALGNTINEMDKYYTQENYKDDAFAKGKTLHQTFLKNLEAFEPVAESYHAAIQEINDKRQLAELKNIEEREGKTFHYYSLAVMISAKQINNLISQDKFDAEAAMKKVSELETLVAQAKEADKGGMNFSFINSAGQYQLEAKKYVRRIRDKVPYSDWDKEQLQDANSSWMVEDSFPRALREYNEMVDDYNSLR
[1]
  total protein half-life in vivo: 6 h
[2]
  total protein half-life in vivo: 5.67 ± 0.5 h
[3]
  total protein half-life in vivo: 6.58 h
[4]
  total protein half-life in vivo: 6.45 h
[5]
  total protein half-life in vivo: 10.5 h
[6]
  total protein half-life in vivo: 5.81 ± 0.094 h
[7]
  total protein half-life in vivo: 10 h

## MSELTDLLLQGPRSAPELRQRLAISQATFSRLVAREDRVIRFGKARATRYALLRPYRGIERIPVWRVDDTGKAHKFADIRLCWPQGSCLVTGADGDEQWFDGLPWYLTDLRPQGFLGRAWGRKLAAQLNLTDDIRLWQEEDVLYALTVFNGEYTGGWLVGEGNYQRWITAQHPAEIPLDQKLTHYEQLASDALAGEIVGSSAGGEQPKFTYYAQTPSGNKHVLVKFTVPQQTAVSQRWGDLLIAESIAAQILRDGGIHAIESTVLVTSNRQVFLEAERFDCKGNDGRLPIVSLEAVQSEFISSPGSWPQAMRRLCEQQLVTHQSVAQTEVIWAFGRLIANSDMHAGNLSFYLSEPPFALTPVYDMLPMVYAPNSAGMLRDAAIEVKFDLNVSKSAWLTAIPLAQQFWQTVARDPRISEAFRHIAQEMPEKIRQIEEKVARMGG
[8]
  total protein half-life in vivo: 5.39 ± 0.31 h
[9]
  total protein half-life in vivo: 5.71 ± 0.22 h
[2]
  total protein half-life in vivo: 4.46 ± 0.29 h
[10]
  total protein half-life in vivo: 2.95 ± 0.45 h
[3]
  total protein half-life in vivo: 5.9 ± 1.3 h
[11]
  total protein half-life in vivo: 10.9 ± 0.43 h
[4]
  total protein half-life in vivo: 4.54 ± 0.54 h
[5]
  total protein half-life in vivo: 9.16 ± 2.6 h
[6]
  total protein half-life in vivo: 2.5 h
[7]
  total protein half-life in vivo: 6.85 ± 3.4 h

## MNILQFNVRLAEGGAAGVALDLHQRALQQGLASHFVYGYGKGGKESVSHQNYPQVIKHTPRMTAMANIALFRLFNRDLFGNFNELYRTITRTAGPVVLHFHVLHSYWLNLKSVVRFCEKVKNHKPDVTLVWTLHDHWSVTGRCAFTDGCEGWKTGCQKCPTLNNYPPVKIDRAHQLVAGKRQLFREMLALGCQFISPSQHVADAFNSLYGPGRCRIINNGIDMATEAILADLPPVRETQGKPKIAVVAHDLRYDGKTNQQLVREMMALGDKIELHTFGKFSPFTAGNVVNHGFETDKRKLMSALNQMDALVFSSRVDNYPLILCEALSIGVPVIATHSDAAREVLQKSGGKTVSEEEVLQLVQLSKPEIAQAIFGTTLAEFSQRSRAAYSGQQMLEEYVNFYQNL
[9]
  total protein half-life in vivo: 5.88 ± 0.64 h
[2]
  total protein half-life in vivo: 5.05 ± 0.76 h

## MAQEYTVEQLNHGRKVYDFMRWDYWAFGISGLLLIAAIVIMGVRGFNWGLDFTGGTVIEITLEKPAEIDVMRDALQKAGFEEPMLQNFGSSHDIMVRMPPAEGETGGQVLGSQVLKVINESTNQNAAVKRIEFVGPSVGADLAQTGAMALMAALLSILVYVGFRFEWRLAAGVVIALAHDVIITLGILSLFHIEIDLTIVASLMSVIGYSLNDSIVVSDRIRENFRKIRRGTPYEIFNVSLTQTLHRTLITSGTTLMVILMLYLFGGPVLEGFSLTMLIGVSIGTASSIYVASALALKLGMKREHMLQQKVEKEGADQPSILP [P0AG93]
[12]
  total protein half-life in vivo: 6.16 h
[9]
  total protein half-life in vivo: 5.2883 ± 0.0031 h
[10]
  total protein half-life in vivo: 3.4 ± 0.44 h
[3]
  total protein half-life in vivo: 5.67 ± 0.76 h
[11]
  total protein half-life in vivo: 8.4 ± 5.1 h
[5]
  total protein half-life in vivo: 10.2 ± 0.42 h
[6]
  total protein half-life in vivo: 6.06 ± 1 h

## MQSVDVAIVGGGMVGLAVACGLQGSGLRVAVLEQRVQEPLAANAPPQLRVSAINAASEKLLTRLGVWQDILSRRASCYHGMEVWDKDSFGHISFDDQSMGYSHLGHIVENSVIHYALWNKAHQSSDITLLAPAELQQVAWGENETFLTLKDGSMLTARLVIGADGANSWLRNKADIPLTFWDYQHHALVATIRTEEPHDAVARQVFHGEGILAFLPLSDPHLCSIVWSLSPEEAQRMQQASEDEFNRALNIAFDNRLGLCKVESARQVFPLTGRYARQFASHRLALVGDAAHTIHPLAGQGVNLGFMDAAELIAELKRLHRQGKDIGQYIYLRRYERSRKHSAALMLAGMQGFRDLFSGTNPAKKLLRDIGLKLADTLPGVKPQLIRQAMGLNDLPEWLR
[1]
  total protein half-life in vivo: 5.67 ± 0.7 h
[8]
  total protein half-life in vivo: 5.28 ± 0.23 h
[12]
  total protein half-life in vivo: 4.33 ± 0.36 h
[9]
  total protein half-life in vivo: 4.06 ± 0.068 h
[2]
  total protein half-life in vivo: 4.06 ± 0.21 h
[10]
  total protein half-life in vivo: 2.864 ± 0.025 h
[3]
  total protein half-life in vivo: 5.52 ± 0.85 h
[11]
  total protein half-life in vivo: 7.26 ± 0.26 h
[4]
  total protein half-life in vivo: 4.1 ± 0.084 h
[5]
  total protein half-life in vivo: 7.19 ± 0.06 h
[6]
  total protein half-life in vivo: 3.16 ± 0.12 h
[7]
  total protein half-life in vivo: 5.3 ± 0.84 h

## MNNMNVIIADDHPIVLFGIRKSLEQIEWVNVVGEFEDSTALINNLPKLDAHVLITDLSMPGDKYGDGITLIKYIKRHFPSLSIIVLTMNNNPAILSAVLDLDIEGIVLKQGAPTDLPKALAALQKGKKFTPESVSRLLEKISAGGYGDKRLSPKESEVLRLFAEGFLVTEIAKKLNRSIKTISSQKKSAMMKLGVENDIALLNYLSSVTLSPADKD [P0DMC7]
[1]
  total protein half-life in vivo: 5.91 ± 1.9 h
[8]
  total protein half-life in vivo: 4.22 ± 1.2 h
[12]
  total protein half-life in vivo: 2.69 ± 0.2 h
[9]
  total protein half-life in vivo: 3.758 ± 0.014 h
[2]
  total protein half-life in vivo: 2.9 ± 0.3 h
[10]
  total protein half-life in vivo: 2.71 ± 0.096 h
[3]
  total protein half-life in vivo: 4.35 ± 0.097 h
[11]
  total protein half-life in vivo: 6.66 ± 1.3 h
[4]
  total protein half-life in vivo: 3.01 ± 0.38 h
[5]
  total protein half-life in vivo: 4.16 ± 0.46 h
[6]
  total protein half-life in vivo: 3.42 ± 0.59 h
[7]
  total protein half-life in vivo: 5.56 ± 0.093 h
